The target in experiment [1] is Heimdallarchaeota AB125 Vps22 (HeimAB125_14050) (Heimdallarchaeota AB125). Nature of the experiment: SEC-MALS; Heimdallarchaeotal Vps22 alone, loaded at 2.0 and 0.5 mg/ml; Superdex 200 increase 10/300; 20 mM Tris-HCl pH 8.0, 200 mM NaCl, 0.5 ml/min.
For experiment [2] the target is unchanged. Nature of the experiment: cross-linking; Vps22 15 µM in 20 mM HEPES-NaOH pH 7.5, 150 mM NaCl; 16 mM EDC with 16 mM Sulfo-NHS (1 h) or 2 mM BS3 (2 h) on ice; SDS-PAGE.
The target in experiment [3] is Odinarchaeota (Ca. Odinarchaeum yellowstonii LCB_4) Vps23 (TSG101) (Ca. Odinarchaeum yellowstonii LCB_4). Nature of the experiment: SEC-MALS; Odinarchaeota proteins; 100 µl at 2 mg/ml; Superdex 200 10/300 Increase GL; 20 mM Tris pH 8.0, 300 mM NaCl, 0.4 ml/min. In general terms: Size exclusion chromatography separates by hydrodynamic size, large species first.

Take “Heimdallarchaeota AB125 Vps22 (HeimAB125_14050) (natural protein)”: the stoichiometry N in experiment [1] and in experiment [2] was 2 throughout. Take “Odinarchaeota (Ca. Odinarchaeum yellowstonii LCB_4) Vps23 (TSG101) (natural protein)”: the stoichiometry N (as a rule, the number of molecules, sites or subunits per partner or assembly) in experiment [3] is 2.

“Odinarchaeota (Ca. Odinarchaeum yellowstonii LCB_4) Vps28 (natural protein)” gave a stoichiometry N (Vps28 per Vps23 dimer) in experiment [3] of 1.
